According to paper PMC8989918, “SH3-domain mutations selectively disrupt Csk homodimerization or PTPN22 binding” (Scientific Reports, 2022):

Target: the molecule itself
Assay: SEC; 1 ml (20 mg, 400 µM) purified Csk loaded onto a HiLoad 16/60 Superdex 200 column; apparent molecular weight from partition coefficients of standard proteins

B1: purified recombinant Csk WT (natural protein, mouse, UniProt P41241 1-450, looked up)
chain: MSAIQAAWPSGTECIAKYNFHGTAEQDLPFCKGDVLTIVAVTKDPNWYKAKNKVGREGIIPANYVQKREGVKAGTKLSLMPWFHGKITREQAERLLYPPETGLFLVRESTNYPGDYTLCVSCEGKVEHYRIMYHASKLSIDEEVYFENLMQLVEHYTTDADGLCTRLIKPKVMEGTVAAQDEFYRSGWALNMKELKLLQTIGKGEFGDVMLGDYRGNKVAVKCIKNDATAQAFLAEASVMTQLRHSNLVQLLGVIVEEKGGLYIVTEYMAKGSLVDYLRSRGRSVLGGDCLLKFSLDVCEAMEYLEGNNFVHRDLAARNVLVSEDNVAKVSDFGLTKEASSTQDTGKLPVKWTAPEALREKKFSTKSDVWSFGILLWEIYSFGRVPYPRIPLKDVVPRVEKGYKMDAPDGCPPAVYEVMKNCWHLDAATRPTFLQLREQLEHIKTHELHL
notes: Csk, tyrosine-protein kinase, mouse, full length (50.6 kDa), from pGEX-6P-3; also called WT Csk; full-length Csk; source: E. coli BL21(DE3), purified (GST Gravitrap, PreScission cleavage, HiTrap Q, Superdex 200); not shown: GST, N-terminal, cleaved
Does B1 bind?
Result: binds
